Assay results taken from US20090325168.

Legend:
[1] = target: T1, Fm-CGD2D, Fm-K[F1]DBJGDEVDGIDGJPK[F1]GY (compound 11 of Table 12)
T1 chain: KDXXGDEVDGIDGXPKGY

[2] = target: T2, Fm-G2D2D, Fm-K[F1]DBGDEVDGIDGPK[F1]GY (compound 10 of Table 12)
T2 chain: KDXGDEVDGIDGPKGY

B1: CPP32 protease (protein)
chain: SGISLDNSYKMDYPEMGLCIIINNKNFHKSTGMTSRSGTDVDAANLRETFRNLKYEVRNKNDLTREEIVELMRDVSKEDHSKRSSFVCVLLSHGEEGIIFGTNGPVDLKKITNFFRGDRCRSLTGKPKLFIIQACRGTELDCGIETDSGVDDDMACHKIPVEADFLYAYSTAPGYYSWRNSKDGSWFIQSLCAMLKQYADKLEFMHILTRVNRKVATEFESFSFDATFHAKKQIPCIVSMLTKELYFYH
[1]
  hydrolysis rate, fold increase over compound 10 (Fm-G2D2D): the hydrolysis rate was further increased by ca. 3-fold over the above glycine residue insertion
  substrate hydrolysis rate, fold increase over compound 4 (Fm-DEVD): overall at least a 9-fold increase in substrate hydrolysis rate was accomplished (compounds 4 and 11, Table 12)
[2]
  hydrolysis rate, fold increase over compound 4 (Fm-DEVD): The hydrolysis rate was increased by 3-fold between compounds 4 ... and 10
